In IntAct's records for PubMed 35512704:

B1: Mothers against decapentaplegic homolog 4 (Homo sapiens), Q13485 (parent)
chain: MDNMSITNTPTSNDACLSIVHSLMCHRQGGESETFAKRAIESLVKKLKEKKDELDSLITAITTNGAHPSKCVTIQRTLDGRLQVAGRKGFPHVIYARLWRWPDLHKNELKHVKYCQYAFDLKCDSVCVNPYHYERVVSPGIDLSGLTLQSNAPSSMMVKDEYVHDFEGQPSLSTEGHSIQTIQHPPSNRASTETYSTPALLAPSESNATSTANFPNIPVASTSQPASILGGSHSEGLLQIASGPQPGQQQNGFTGQPATYHHNSTTTWTGSRTAPYTPNLPHHQNGHLQHHPPMPPHPGHYWPVHNELAFQPPISNHPAPEYWCSIAYFEMDVQVGETFKVPSSCPIVTVDGYVDPSGGDRFCLGQLSNVHRTEAIERARLHIGKGVQLECKGEGDVWVRCLSDHAVFVQSYYLDREAGRAPGDAVHKIYPSAYIKVFDLRQCHRQMQQQAATAQAAAAAQAAAVAGNIPGPGSVGGIAPAISLSAAAGIGVDDLRRLCILRMSFVKGWGPDYPRQSIKETPCWIEIHLHRALQLLDEVLHTMPIADPQPLD

Variants of: B1
Details: with etv1_human ETV1, P50549
Chain of etv1_human ETV1, P50549 (P50549 whole entry): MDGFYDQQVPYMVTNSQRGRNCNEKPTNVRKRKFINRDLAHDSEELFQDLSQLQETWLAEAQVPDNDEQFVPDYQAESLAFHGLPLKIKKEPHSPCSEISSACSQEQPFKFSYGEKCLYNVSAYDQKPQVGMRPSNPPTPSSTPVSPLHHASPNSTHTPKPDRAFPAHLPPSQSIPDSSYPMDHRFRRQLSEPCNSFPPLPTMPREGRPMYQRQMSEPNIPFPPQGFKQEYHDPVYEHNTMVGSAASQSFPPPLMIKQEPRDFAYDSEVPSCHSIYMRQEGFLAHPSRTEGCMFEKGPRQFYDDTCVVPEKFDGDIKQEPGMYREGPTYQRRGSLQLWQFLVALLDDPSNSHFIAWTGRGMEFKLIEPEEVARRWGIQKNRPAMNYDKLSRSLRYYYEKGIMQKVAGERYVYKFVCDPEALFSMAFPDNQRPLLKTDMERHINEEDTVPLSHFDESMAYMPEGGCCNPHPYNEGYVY

Row | effect of a mutation on the interaction | Variant
1 | with no effect | G386D

Variants of: B1
Details: with ezh2_human EZH2, Q15910

Row | effect of a mutation on the interaction | Variant
2 | with no effect | G386D

Variants of: B1
Details: with fadd_human FADD

Row | effect of a mutation on the interaction | Variant
3 | with no effect | G386D

Variants of: B1
Details: with facd2_human FANCD2, Q9BXW9

Row | effect of a mutation on the interaction | Variant
4 | with no effect | G386D

Variants of: B1
Details: with tnr6_human FAS

Row | effect of a mutation on the interaction | Variant
5 | with no effect | G386D

Variants of: B1
Details: with fgf19_human FGF19, O95750
Chain of fgf19_human FGF19, O95750 (O95750 whole entry): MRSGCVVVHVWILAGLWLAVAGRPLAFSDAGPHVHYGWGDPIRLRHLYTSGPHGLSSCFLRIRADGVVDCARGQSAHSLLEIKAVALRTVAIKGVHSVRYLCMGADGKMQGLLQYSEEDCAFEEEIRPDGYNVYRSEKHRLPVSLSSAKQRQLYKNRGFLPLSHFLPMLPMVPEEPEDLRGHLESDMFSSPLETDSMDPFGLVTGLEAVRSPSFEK

Row | effect of a mutation on the interaction | Variant
6 | with no effect | G386D

Variants of: B1
Details: with fgfr3_human FGFR3, P22607

Row | effect of a mutation on the interaction | Variant
7 | with no effect | G386D

Variants of: B1
Details: with fgfr4_human FGFR4, P22455

Row | effect of a mutation on the interaction | Variant
8 | with no effect | G386D

Variants of: B1
Details: with foxo1_human FOXO1, Q12778
Chain of foxo1_human FOXO1, Q12778 (Q12778 whole entry): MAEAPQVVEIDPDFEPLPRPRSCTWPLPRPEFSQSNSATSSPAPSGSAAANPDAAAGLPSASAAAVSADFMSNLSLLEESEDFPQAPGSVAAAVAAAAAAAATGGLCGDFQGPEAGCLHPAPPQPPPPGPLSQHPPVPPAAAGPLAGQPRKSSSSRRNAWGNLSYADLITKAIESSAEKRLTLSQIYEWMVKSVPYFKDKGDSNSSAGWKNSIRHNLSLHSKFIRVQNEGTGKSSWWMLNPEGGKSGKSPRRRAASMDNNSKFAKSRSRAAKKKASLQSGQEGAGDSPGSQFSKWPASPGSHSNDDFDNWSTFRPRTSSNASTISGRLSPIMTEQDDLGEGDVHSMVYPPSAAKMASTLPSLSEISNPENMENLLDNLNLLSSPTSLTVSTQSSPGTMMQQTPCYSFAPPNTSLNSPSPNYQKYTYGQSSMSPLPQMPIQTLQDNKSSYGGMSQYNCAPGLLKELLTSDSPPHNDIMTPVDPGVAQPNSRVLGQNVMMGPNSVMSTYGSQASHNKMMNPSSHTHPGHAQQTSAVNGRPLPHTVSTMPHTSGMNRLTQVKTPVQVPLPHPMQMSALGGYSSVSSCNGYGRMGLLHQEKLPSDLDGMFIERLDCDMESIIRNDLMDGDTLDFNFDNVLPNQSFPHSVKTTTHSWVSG

Row | effect of a mutation on the interaction | Variant
9 | with no effect | G386D

Variants of: B1
Details: with foxo3_human FOXO3, O43524
Chain of foxo3_human FOXO3, O43524 (O43524 whole entry): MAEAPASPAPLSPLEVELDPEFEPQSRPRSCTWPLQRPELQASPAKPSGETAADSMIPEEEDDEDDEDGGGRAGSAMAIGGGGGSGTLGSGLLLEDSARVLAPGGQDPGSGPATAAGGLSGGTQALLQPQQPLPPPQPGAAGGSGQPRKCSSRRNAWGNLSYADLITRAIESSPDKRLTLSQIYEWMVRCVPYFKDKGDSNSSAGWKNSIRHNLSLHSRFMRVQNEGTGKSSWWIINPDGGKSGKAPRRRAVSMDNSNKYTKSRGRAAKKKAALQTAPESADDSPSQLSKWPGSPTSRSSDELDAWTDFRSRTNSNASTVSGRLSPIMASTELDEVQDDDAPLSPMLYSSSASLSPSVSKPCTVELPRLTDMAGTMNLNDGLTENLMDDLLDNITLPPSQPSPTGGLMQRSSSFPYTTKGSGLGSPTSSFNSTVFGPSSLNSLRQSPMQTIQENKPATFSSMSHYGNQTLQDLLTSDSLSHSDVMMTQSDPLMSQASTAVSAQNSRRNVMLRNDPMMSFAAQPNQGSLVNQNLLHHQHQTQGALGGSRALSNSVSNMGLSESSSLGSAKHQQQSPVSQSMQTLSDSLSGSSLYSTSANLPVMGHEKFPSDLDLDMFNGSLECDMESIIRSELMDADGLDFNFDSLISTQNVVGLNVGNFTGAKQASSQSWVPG

Row | effect of a mutation on the interaction | Variant
10 | with no effect | G386D

Variants of: B1
Details: with gbra6_human GABRA6, Q16445

Row | effect of a mutation on the interaction | Variant
11 | with no effect | G386D

Variants of: B1
Details: with gata2_human GATA2, P23769
Chain of gata2_human GATA2, P23769 (P23769 whole entry): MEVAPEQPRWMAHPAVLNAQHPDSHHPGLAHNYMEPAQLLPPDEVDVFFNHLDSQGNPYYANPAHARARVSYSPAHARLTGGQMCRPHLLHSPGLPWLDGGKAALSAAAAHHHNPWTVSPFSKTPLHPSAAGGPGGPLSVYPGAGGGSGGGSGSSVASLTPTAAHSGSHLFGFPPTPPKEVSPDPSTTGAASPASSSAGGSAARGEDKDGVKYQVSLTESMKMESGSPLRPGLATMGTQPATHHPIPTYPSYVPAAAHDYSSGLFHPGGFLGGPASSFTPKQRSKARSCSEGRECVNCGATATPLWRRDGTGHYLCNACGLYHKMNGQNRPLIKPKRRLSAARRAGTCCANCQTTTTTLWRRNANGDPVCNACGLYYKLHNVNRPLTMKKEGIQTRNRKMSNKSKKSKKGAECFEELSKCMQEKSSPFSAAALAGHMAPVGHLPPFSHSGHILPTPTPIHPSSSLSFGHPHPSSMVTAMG

Row | effect of a mutation on the interaction | Variant
12 | with no effect | G386D

Variants of: B1
Details: with gata3_human GATA3, P23771

Row | effect of a mutation on the interaction | Variant
13 | with no effect | G386D

Variants of: B1
Details: with gna11_human GNA11, P29992

Row | effect of a mutation on the interaction | Variant
14 | with no effect | G386D

Variants of: B1
Details: with gna13_human GNA13, Q14344

Row | effect of a mutation on the interaction | Variant
15 | with no effect | G386D

Variants of: B1
Details: with gnaq_human GNAQ

Row | effect of a mutation on the interaction | Variant
16 | with no effect | G386D

Variants of: B1
Details: with grm1_human GRM1, Q13255

Row | effect of a mutation on the interaction | Variant
17 | with no effect | G386D

Variants of: B1
Details: with grm3_human GRM3, Q14832

Row | effect of a mutation on the interaction | Variant
18 | with no effect | G386D

Variants of: B1
Details: with gsk3a_human GSK3A

Row | effect of a mutation on the interaction | Variant
19 | with no effect | G386D

Variants of: B1
Details: with gsk3b_human GSK3B

Row | effect of a mutation on the interaction | Variant
20 | with no effect | G386D

Variants of: B1
Details: with hdac1_human HDAC1, Q13547

Row | effect of a mutation on the interaction | Variant
21 | with no effect | G386D

Variants of: B1
Details: with hdac3_human HDAC3, O15379

Row | effect of a mutation on the interaction | Variant
22 | with no effect | G386D

Variants of: B1
Details: with hgf_human HGF

Row | effect of a mutation on the interaction | Variant
23 | with no effect | G386D

Variants of: B1
Details: with hif1a_human HIF1A

Row | effect of a mutation on the interaction | Variant
24 | with no effect | G386D

Variants of: B1
Details: with h31_human H3C1, P68431

Row | effect of a mutation on the interaction | Variant
25 | with no effect | G386D

Variants of: B1
Details: with hlab_human HLA-B

Row | effect of a mutation on the interaction | Variant
26 | with no effect | G386D

Variants of: B1
Details: with hnf1a_human HNF1A

Row | effect of a mutation on the interaction | Variant
27 | with no effect | G386D

Variants of: B1
Details: with rash_human HRAS

Row | effect of a mutation on the interaction | Variant
28 | with no effect | G386D

Variants of: B1
Details: with hs90a_human HSP90AA1, P07900

Row | effect of a mutation on the interaction | Variant
29 | with no effect | G386D

Variants of: B1
Details: with igf2_human IGF2, P01344

Row | effect of a mutation on the interaction | Variant
30 | with no effect | G386D

Variants of: B1
Details: with il7ra_human IL7R

Row | effect of a mutation on the interaction | Variant
31 | with no effect | G386D

Variants of: B1
Details: with int12_human INTS12, Q96CB8

Row | effect of a mutation on the interaction | Variant
32 | with no effect | G386D

Variants of: B1
Details: with irf6_human IRF6, O14896

Row | effect of a mutation on the interaction | Variant
33 | with no effect | G386D

Variants of: B1
Details: with irs1_human IRS1, P35568
Chain of irs1_human IRS1, P35568 (P35568 whole entry): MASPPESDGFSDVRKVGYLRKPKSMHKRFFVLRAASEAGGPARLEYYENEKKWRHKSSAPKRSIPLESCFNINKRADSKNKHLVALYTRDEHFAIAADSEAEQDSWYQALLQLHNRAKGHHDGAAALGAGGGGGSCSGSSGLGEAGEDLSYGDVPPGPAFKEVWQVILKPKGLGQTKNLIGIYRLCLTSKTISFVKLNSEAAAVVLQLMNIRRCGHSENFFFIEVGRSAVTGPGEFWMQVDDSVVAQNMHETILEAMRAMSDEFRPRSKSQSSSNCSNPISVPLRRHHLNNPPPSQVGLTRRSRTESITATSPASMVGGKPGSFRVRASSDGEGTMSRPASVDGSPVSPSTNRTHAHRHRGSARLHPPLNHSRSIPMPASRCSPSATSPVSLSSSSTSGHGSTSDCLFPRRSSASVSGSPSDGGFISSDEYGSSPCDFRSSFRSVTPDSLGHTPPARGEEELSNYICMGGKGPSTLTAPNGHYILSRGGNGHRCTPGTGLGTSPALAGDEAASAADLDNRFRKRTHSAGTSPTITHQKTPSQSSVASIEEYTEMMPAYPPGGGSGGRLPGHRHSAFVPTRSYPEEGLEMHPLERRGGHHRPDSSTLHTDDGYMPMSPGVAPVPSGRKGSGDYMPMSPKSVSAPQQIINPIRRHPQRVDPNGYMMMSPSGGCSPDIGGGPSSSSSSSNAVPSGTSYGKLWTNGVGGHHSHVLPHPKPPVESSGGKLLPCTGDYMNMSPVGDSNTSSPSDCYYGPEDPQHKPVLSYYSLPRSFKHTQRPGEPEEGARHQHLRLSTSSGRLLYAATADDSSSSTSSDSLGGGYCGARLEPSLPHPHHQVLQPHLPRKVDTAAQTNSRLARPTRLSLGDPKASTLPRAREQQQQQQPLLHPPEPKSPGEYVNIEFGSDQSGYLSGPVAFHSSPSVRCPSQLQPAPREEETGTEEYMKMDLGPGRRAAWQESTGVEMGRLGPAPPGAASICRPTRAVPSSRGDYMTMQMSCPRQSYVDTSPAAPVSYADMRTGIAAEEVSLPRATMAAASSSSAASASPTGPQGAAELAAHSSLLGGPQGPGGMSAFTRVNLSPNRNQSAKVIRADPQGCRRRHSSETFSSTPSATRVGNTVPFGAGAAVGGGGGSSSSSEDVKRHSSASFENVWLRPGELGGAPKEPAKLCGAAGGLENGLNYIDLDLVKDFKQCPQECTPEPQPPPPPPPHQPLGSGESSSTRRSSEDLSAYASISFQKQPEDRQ

Row | effect of a mutation on the interaction | Variant
34 | with no effect | G386D

Variants of: B1
Details: with ist1_human IST1, P53990

Row | effect of a mutation on the interaction | Variant
35 | with no effect | G386D

Variants of: B1
Details: with jak1_human JAK1, P23458
Chain of jak1_human JAK1, P23458 (P23458 whole entry): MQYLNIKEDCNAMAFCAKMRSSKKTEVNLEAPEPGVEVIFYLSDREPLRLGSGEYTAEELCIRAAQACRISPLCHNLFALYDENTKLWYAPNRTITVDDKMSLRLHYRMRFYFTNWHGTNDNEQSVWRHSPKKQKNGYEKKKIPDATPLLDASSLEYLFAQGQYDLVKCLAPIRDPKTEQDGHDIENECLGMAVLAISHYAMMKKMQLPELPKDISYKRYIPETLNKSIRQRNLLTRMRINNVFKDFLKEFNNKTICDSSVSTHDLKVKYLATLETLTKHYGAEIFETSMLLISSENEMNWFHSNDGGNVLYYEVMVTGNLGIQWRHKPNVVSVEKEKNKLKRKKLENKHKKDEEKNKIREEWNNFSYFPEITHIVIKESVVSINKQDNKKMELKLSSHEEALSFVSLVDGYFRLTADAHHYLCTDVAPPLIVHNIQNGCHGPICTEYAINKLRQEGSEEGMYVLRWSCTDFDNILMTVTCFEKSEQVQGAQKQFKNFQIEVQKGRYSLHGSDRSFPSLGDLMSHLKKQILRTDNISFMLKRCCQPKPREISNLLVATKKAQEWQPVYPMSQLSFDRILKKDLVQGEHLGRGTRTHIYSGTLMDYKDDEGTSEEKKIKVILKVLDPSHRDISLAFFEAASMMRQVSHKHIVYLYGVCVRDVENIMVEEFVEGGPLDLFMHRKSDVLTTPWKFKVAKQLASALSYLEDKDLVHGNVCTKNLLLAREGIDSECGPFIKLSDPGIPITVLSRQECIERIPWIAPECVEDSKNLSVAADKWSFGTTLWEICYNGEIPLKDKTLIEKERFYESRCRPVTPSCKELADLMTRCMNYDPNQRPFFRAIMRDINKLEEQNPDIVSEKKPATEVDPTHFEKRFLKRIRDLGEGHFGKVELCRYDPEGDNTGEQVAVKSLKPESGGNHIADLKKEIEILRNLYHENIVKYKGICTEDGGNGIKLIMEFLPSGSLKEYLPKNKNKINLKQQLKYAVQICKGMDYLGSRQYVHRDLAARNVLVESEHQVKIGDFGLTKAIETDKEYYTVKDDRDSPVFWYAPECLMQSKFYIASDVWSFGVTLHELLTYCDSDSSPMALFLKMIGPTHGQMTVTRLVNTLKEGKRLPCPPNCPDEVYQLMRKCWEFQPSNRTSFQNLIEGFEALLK

Row | effect of a mutation on the interaction | Variant
36 | with no effect | G386D

Variants of: B1
Details: with jak3_human JAK3, P52333

Row | effect of a mutation on the interaction | Variant
37 | with no effect | G386D

Variants of: B1
Details: with kat2a_human KAT2A

Row | effect of a mutation on the interaction | Variant
38 | with no effect | G386D

Variants of: B1
Details: with kdm5c_human KDM5C

Row | effect of a mutation on the interaction | Variant
39 | with no effect | G386D

Variants of: B1
Details: with kdm6a_human KDM6A

Row | effect of a mutation on the interaction | Variant
40 | with no effect | G386D
